# Values quoted from earlier work, collected in paper PMC12731121.
# Assays:
# MIF (Homo sapiens) = MIF (Homo sapiens) (UniProt P14174)
# [1] = target: D-dopachrome tautomerase (MIF-2) (Homo sapiens) (UniProt P30046)
# [2] = target: Cathepsin H (Homo sapiens) (UniProt P09668)
# [3] = target: Cathepsin S (Homo sapiens) (UniProt P25774)
# [4] = target: Cathepsin L (Homo sapiens) (UniProt P07711)
# Sequence of Cathepsin L (Homo sapiens) (P07711 292-333): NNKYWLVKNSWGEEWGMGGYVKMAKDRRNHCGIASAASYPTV
# Sequence of CD74 p41 thyropin domain (P04233 210-271): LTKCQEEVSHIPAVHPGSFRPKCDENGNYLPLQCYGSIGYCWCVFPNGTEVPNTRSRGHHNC
# Sequence of CD74 (P04233 73-296): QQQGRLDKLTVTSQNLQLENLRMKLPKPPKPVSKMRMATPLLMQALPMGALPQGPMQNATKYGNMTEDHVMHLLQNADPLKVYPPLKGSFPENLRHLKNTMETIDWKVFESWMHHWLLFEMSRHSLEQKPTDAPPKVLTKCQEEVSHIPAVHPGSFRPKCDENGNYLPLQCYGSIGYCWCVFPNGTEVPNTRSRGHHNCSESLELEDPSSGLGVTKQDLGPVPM
# Sequence of D-dopachrome tautomerase (MIF-2) (Homo sapiens) (P30046 2-118): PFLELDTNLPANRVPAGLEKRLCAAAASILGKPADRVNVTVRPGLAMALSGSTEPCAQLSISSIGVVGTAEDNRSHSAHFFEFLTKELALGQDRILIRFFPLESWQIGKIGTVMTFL
# Sequence of Cathepsin S (Homo sapiens) (P25774 115-331): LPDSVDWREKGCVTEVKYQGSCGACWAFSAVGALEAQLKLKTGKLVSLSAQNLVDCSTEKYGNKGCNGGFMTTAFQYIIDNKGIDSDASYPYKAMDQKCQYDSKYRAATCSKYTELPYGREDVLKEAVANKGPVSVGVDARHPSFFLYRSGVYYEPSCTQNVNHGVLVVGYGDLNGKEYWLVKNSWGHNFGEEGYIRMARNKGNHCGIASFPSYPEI
# Sequence of Cathepsin H (Homo sapiens) (P09668 whole entry, looked up): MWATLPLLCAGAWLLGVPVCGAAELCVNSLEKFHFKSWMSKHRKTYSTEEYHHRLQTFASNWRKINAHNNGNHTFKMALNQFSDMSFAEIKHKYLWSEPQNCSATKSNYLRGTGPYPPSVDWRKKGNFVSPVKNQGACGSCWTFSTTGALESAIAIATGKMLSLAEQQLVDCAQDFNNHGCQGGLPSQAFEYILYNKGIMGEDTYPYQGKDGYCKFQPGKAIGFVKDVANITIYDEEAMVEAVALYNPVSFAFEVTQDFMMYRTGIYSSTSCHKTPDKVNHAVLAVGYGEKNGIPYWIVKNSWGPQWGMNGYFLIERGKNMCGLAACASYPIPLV
# Sequence of MIF (Homo sapiens) (P14174 2-115): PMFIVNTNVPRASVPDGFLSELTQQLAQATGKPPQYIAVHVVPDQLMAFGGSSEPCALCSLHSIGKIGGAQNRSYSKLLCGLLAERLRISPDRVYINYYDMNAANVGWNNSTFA
Kd (MIF (Homo sapiens)),Kd [1],Ki [2],Ki [3],Ki [4],Substance
1.4 nM,5.4 nM,,,,CD74 (from UniProt P04233)
,,5.3 nM,208 nM,0.0017 nM,CD74 p41 thyropin domain (from UniProt P04233)
